# From CN111110862A (dated 2020)
# Where a chain is given by its changes, count along the chain named. Like-named read-outs stand apart in the source and are kept apart here.
# T1: 鼠CLDN18.2(mCLDN18.2) (mouse, UniProt P56857 10-264)
# T1 construct: also called mouse claudin-18 isoform A2.1; mCLDN18.2+cell
# T1 chain: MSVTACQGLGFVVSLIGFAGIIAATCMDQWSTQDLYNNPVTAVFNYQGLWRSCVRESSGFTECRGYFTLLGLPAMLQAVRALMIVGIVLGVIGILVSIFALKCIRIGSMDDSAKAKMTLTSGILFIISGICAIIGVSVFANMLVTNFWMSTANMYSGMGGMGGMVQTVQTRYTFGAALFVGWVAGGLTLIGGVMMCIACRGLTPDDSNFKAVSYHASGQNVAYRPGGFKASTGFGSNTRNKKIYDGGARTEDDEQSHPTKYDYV
# T2: 鼠CLDN18.1(mCLDN18.1) (mouse, UniProt P56857 1-264)
# T2 construct: also called mouse claudin-18 isoform A1.1; mCLDN18.1+cell
# T2 sequence: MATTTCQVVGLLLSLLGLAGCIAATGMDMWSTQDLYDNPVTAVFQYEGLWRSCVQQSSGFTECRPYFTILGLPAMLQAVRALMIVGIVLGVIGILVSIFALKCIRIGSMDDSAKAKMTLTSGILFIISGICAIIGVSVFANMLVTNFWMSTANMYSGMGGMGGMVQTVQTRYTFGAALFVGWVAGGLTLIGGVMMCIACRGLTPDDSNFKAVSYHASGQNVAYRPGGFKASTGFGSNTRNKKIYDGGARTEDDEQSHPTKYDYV
# T3: 人CLDN18.1(hCLDN18.1) (human, UniProt P56856 1-261)
# T3 construct: also called human claudin-18 isoform 1; 密蛋白18.1
# T3 sequence: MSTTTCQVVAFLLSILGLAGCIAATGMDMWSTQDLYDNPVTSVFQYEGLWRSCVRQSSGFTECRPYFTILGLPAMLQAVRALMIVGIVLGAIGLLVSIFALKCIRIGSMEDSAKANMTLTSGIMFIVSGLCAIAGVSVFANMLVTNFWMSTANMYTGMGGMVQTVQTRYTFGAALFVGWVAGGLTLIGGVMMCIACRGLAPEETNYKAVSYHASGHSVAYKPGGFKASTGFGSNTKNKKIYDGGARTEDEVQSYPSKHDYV
# B1: Ab24抗体 (antibody, human IgG1, kappa, V domains shown)
# VH: QVQLVQSGAEVKKPGSSVKVSCKASGYAFSNYLIEWVRQAPGQGLEWMGLINPGSGGTNYNEKFKGKVTITADKSTSTAYMELSSLRSEDTAVYYCARVYYGNTFAYWGQGTLVTVSS
# VL: DIVMTQSPDSLAVSLGERATINCKSSQSLLNTGNNKNYLAWYQQKPGQPPKLLIYWASTRESGVPDRFSGSGSGTDFTLTISSLQAEDVAVYYCQNDYFYPFTFGQGTKLEIKR
# B2: Ab51抗体 (antibody, human IgG1, kappa, V domains shown)
# VH: B1 VH with K67R, K74E
# VL: B1 VL
# B3: Ab36抗体 (antibody, human IgG1, kappa, V domains shown)
# VH: B1 VH with R38K, M48I, V68A
# VL: B1 VL with N22S
# B4: anti-hCLDN18.2鼠源抗体mab5b (antibody, human IgG1, kappa, V domains shown)
# VH: QVQLQQSGAELIGPGTSVKVSCKASGYAFSNYLIEWVKQRPEQGLEWIGLINPGSGGTNYNEKFKGKATLTADKSSSTAYMQLSSLTSDDSAVYFCARVYYGNSFAYWGQGTLVTVSA
# VL: DIVMTQSPSSLTVTAGEKVTMSCKSSQSLLNSGNQKNYLTWYQQKPGQPPKLLIYWASTRESGVPDRFTGSGSGTHFTLTISSVQAEDLAVYYCQNDYFYPFTFGSGTKLEKKR
# Key:
# 人CLDN18.2(hCLDN18.2) [1] = target: T4, 人CLDN18.2(hCLDN18.2) (human, UniProt P56856 24-261); assay: cell-based or functional assay
# 人CLDN18.2(hCLDN18.2) [2] = target: T4, 人CLDN18.2(hCLDN18.2); assay: cell-based or functional assay; remark: listed apart in the source
# 鼠CLDN18.2(mCLDN18.2) = target: T1, 鼠CLDN18.2(mCLDN18.2); assay: cell ELISA on fixed mCLDN18.2+cell
# 鼠CLDN18.1(mCLDN18.1) = target: T2, 鼠CLDN18.1(mCLDN18.1); assay: cell ELISA on fixed mCLDN18.1+cell
# 人CLDN18.1(hCLDN18.1) = target: T3, 人CLDN18.1(hCLDN18.1); assay: cell ELISA on fixed hCLDN18.1+cell
binder,measurement,setting,value
B1,"CDC EC50 (LDH release, human serum, hCLDN18.2+ target cells)",人CLDN18.2(hCLDN18.2) [1],1.3 µg/mL
same,"CDC EC50 (LDH release, human serum, hCLDN18.2+ target cells)",人CLDN18.2(hCLDN18.2) [2],0.255 µg/mL
B2,"CDC EC50 (LDH release, human serum, hCLDN18.2+ target cells)",人CLDN18.2(hCLDN18.2) [1],2.12 µg/mL
B3,"CDC EC50 (LDH release, human serum, hCLDN18.2+ target cells)",人CLDN18.2(hCLDN18.2) [1],1.75 µg/mL
B4,fold better binding (EC50) than Ref,鼠CLDN18.2(mCLDN18.2),> 4 fold
same,fold higher Emax than Ref,鼠CLDN18.2(mCLDN18.2),> 1 fold
same,binding result,鼠CLDN18.1(mCLDN18.1),no binding (tested: 200nM)
same,binding result,人CLDN18.1(hCLDN18.1),no binding (tested: 200nM)
